Consider one protein from article PMC5961147 (Nucleic Acids Research, 2018).

The data set concerns the molecule itself. As to the kind of experiment: cross-linking.

B1: Flag-SART3 (natural protein, UniProt Q15020 1-963, looked up)
chain: MATAAETSASEPEAESKAGPKADGEEDEVKAARTRRKVLSRAVAAATYKTMGPAWDQQEEGVSESDGDEYAMASSAESSPGEYEWEYDEEEEKNQLEIERLEEQLSINVYDYNCHVDLIRLLRLEGELTKVRMARQKMSEIFPLTEELWLEWLHDEISMAQDGLDREHVYDLFEKAVKDYICPNIWLEYGQYSVGGIGQKGGLEKVRSVFERALSSVGLHMTKGLALWEAYREFESAIVEAARLEKVHSLFRRQLAIPLYDMEATFAEYEEWSEDPIPESVIQNYNKALQQLEKYKPYEEALLQAEAPRLAEYQAYIDFEMKIGDPARIQLIFERALVENCLVPDLWIRYSQYLDRQLKVKDLVLSVHNRAIRNCPWTVALWSRYLLAMERHGVDHQVISVTFEKALNAGFIQATDYVEIWQAYLDYLRRRVDFKQDSSKELEELRAAFTRALEYLKQEVEERFNESGDPSCVIMQNWARIEARLCNNMQKARELWDSIMTRGNAKYANMWLEYYNLERAHGDTQHCRKALHRAVQCTSDYPEHVCEVLLTMERTEGSLEDWDIAVQKTETRLARVNEQRMKAAEKEAALVQQEEEKAEQRKRARAEKKALKKKKKIRGPEKRGADEDDEKEWGDDEEEQPSKRRRVENSIPAAGETQNVEVAAGPAGKCAAVDVEPPSKQKEKAASLKRDMPKVLHDSSKDSITVFVSNLPYSMQEPDTKLRPLFEACGEVVQIRPIFSNRGDFRGYCYVEFKEEKSALQALEMDRKSVEGRPMFVSPCVDKSKNPDFKVFRYSTSLEKHKLFISGLPFSCTKEELEEICKAHGTVKDLRLVTNRAGKPKGLAYVEYENESQASQAVMKMDGMTIKENIIKVAISNPPQRKVPEKPETRKAPGGPMLLPQTYGARGKGRTQLSLLPRALQRPSAAAPQAENGPAAAPAVAAPAATEAPKMSNADFAKLFLRK
The stoichiometry N is a count of units in the complex or per binding partner. Turning to B1, the “stoichiometry N” value is 2.
